US20130266574A1 (Regeneron, published 2013)

Biological target: T1, mANGPTL4-His [R26-S410 of mANGPTL4 (SEQ ID NO: 478) fused with an AS linker to a C-terminal 6-histidine tag] (mouse, UniProt Q9Z1P8 26-410)
T1 construct: also called mANGPTL4(26-410)-His
T1 sequence: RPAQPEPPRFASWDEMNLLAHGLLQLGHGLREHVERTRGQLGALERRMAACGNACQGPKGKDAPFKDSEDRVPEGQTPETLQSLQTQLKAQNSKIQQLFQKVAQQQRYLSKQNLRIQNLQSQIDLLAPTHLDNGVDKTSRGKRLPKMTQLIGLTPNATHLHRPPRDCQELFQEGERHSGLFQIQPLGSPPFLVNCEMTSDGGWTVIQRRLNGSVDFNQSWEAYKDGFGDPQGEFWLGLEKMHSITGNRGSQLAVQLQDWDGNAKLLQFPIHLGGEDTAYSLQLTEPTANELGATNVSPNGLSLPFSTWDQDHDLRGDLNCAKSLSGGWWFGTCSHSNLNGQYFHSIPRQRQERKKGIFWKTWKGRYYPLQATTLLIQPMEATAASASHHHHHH
Test: SPR (Biacore), antigen amine coupled
Method: Possible cross-reactivity of the anti-hANGPTL4 antibodies to related proteins, i.e., hANGPTL3, human angiopoietin-like protein 5 (hANGPTL5) and mouse ANGPTL4 (mANGPTL4), was tested for the selected antibodies, i.e., H1H268P and H1H284P, using the BIACORE™ system. Briefly, anti-hANGPTL4 antibodies as well as negative controls, i.e., two monoclonal antibodies (Control a and Control b) that are non-binders to any ANGPTL proteins, were injected at 3.125 μg/mL-50 μg/mL over amine coupled chip surfaces of hANGPTL3-His (R&D Systems, cat #3829-AN) at 5228 RU, hANGPTL4-His (R&D Systems, cat #4487-AN) at 6247 RU, hANGPTL5-His (Abnova Corp., cat #H00253935-P01) at 5265 RU, and mANGPTL4-His [R26-S410 of mANGPTL4 (SEQ ID NO: 478) fused with an AS linker to a C-terminal 6-histidine tag] at 5233 RU, respectively. A polyclonal antibody specific for hANGPTL3 (R&D System, cat #BAF3485) was also tested.

B1: H1H284P (antibody, V domains shown)
VH: QVQLVESGGGVVQPGRSLRLSCAASGFTFSSYGMHWVRQAPGKGLEWMAVISFDGGNKNNADSVKGRFTISRDNSKNTLYLQMNSLRAEDTAVYYCAKEGDRSGHPYFYYYGLDVWGQGTTVTVS
VL: DIQLTQSPSFLSASVGDRVTITCWASQGISSYLAWYQQKPGKAPKLLIYAASTLQSGVPSRFSGSGSETEFTLTISSLQPEDFATYYCQQLHSYPLTFGGGTKVEIK
notes: also called entire H1H284 mAb; Full mAb
B1: no binding (tested: 3.125 µg/mL-50 µg/mL).
